The record followed here is article PMC5148603.

The term stoichiometry N denotes a count of units in the complex or per binding partner.

For experiment [1], the target named is T1, bovine lipoprotein lipase (bovine) (UniProt P11151).
T1 sequence: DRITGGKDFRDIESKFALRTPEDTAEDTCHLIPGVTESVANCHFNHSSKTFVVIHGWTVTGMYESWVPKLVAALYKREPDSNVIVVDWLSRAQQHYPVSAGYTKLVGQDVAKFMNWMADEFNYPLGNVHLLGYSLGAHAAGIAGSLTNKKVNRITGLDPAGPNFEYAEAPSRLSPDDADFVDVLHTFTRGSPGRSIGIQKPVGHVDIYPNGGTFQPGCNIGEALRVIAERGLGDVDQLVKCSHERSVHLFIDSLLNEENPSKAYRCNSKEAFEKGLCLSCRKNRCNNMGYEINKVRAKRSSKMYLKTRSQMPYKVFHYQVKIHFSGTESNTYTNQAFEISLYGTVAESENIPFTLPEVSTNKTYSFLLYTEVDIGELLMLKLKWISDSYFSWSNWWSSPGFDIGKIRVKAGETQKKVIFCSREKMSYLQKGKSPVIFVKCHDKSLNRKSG
To be noted: scale: molecules of LPL per ANGPTL4 molecule per min.

The target in experiment [2] is coiled-coil domain of wild-type human ANGPTL4 (residues 1–159) (human). Briefly: SDS-PAGE before and after reduction (disulfide-linked oligomers); Coomassie blue-stained gel of purified ANGPTL4 1–159 before and after reduction and alkylation; optical scanning of lanes of two-fold serial dilutions.
Experiment [3] concerns the target T1, bovine lipoprotein lipase (bovine). The note with it: scale: molecules LPL per ANGPTL4 molecule per min.

“coiled-coil domain of wild-type human ANGPTL4 (residues 1–159) (domain or fragment)” returned a catalytic efficacy of unfolding of LPL's hydrolase domain (pulse-labelling HDX-MS, bimodality of peptide 131–165); 10 µM LPL with 0.25, 0.5 and 1 µM ANGPTL4 1–159, 25°C, early time points in experiment [1] of 1.6. In experiment [2], this molecule showed a percent of the total protein that is covalent (disulfide-linked) dimer of 10% and a stoichiometry N of 2.

B1: coiled-coil domain of human ANGPTL4 E15K (residues 1–159) (domain or fragment)
chain: MGPVQSKSPRFASWDKMNVLAHGLLQLGQGLREHAERTRSQLSALERRLSACGSACQGTEGSTDLPLAPESRVDPEVLHSLQTQLKAQNSRIQQLFHKVAQQQRHLEKQHLRIQHLQSQFGLLDHKHLDHEVAKPARRKRLPEMAQPVDPAHNVSRLHRL
Consider B1, for which the catalytic efficacy of unfolding of LPL's hydrolase domain (pulse-labelling HDX-MS, peptide 131–165); 10 µM LPL with 0.5, 1 and 2 µM ANGPTL4 1–159/E15K, 25°C, linear phases of the progress curves in experiment [3] was determined as 0.6.
